Assay: H3-heparin binding assay, recombinant AAMP blotted onto Immobilon-P
Conditions: tritiated heparin 2.5 U/mL
Procedure: Heparin binding assays utilizing competition of tritiated heparin (heparin sodium salt, [^3 H(G)]-, NEN DuPont), with unlabeled heparin, were performed for recombinant AAMP, solubilized P189 (immobilized on CovaLink™ plates), and for aggregated P189 in 0.1% BSA-DMEM solutions. Recombinant AAMP in bacterial lysate and bovine serum albumin in equal amounts were electrophoresed for gel purification, and blotted onto Immobilon-P™. These blots were incubated 3 hours with tritiated heparin, 2.5 U/mL (10.7 uCi/mL) at room temperature, alone and with increasing amounts of unlabeled heparin (0.125-0.25 U/mL) for competition. Following 3 washes, the bands of AAMP recombinant protein and BSA (triplicates for each heparin concentration) were cut from the blotted Immobilon P strips, placed in scintillation vials, and counted for comparisons. Solubilized P189 (6.25 ug/mL) was immobilized on CovaLink™ plates, as described previously, and incubated one hour at room temperature with tritiated heparin, […] (0.213 uCi/mL), alone and with increasing amounts of unlabeled heparin (50-500 U/mL) for competition. Following three washes, the plate wells, in duplicates or triplicates for each heparin concentration, were placed in scintillation vials and counted. In separate assays, aggregates of P189 (200 ug/mL in 0.1% BSA-DMEM) were incubated one hour on a rocker at room temperature with tritiated heparin (0.05 U/mL) alone and with increasing amounts of unlabeled heparin (0.05-5 U/mL) for competition. Following centrifugation,the precipitate was washed with 0.1% BSA-DMEM, centrifuged again, and then transferred to scintillation vials for counting. The background cpm/umole protein levels for assays with AAMP recombinant protein competed with unlabeled heparin, were standardized to AAMP recombinant protein's average background cpm/umole protein with no labeled heparin present.

tritiated heparin binding, cpm above background per umole protein, with competition by equal amount of cold heparin (1:1 unlabeled heparin, 3 assays, S.D.): 2139 cpm/umole protein | tritiated heparin binding, cpm above background per umole protein, without competition (6 assays, S.D.): 9134+/-2699 cpm/umole protein | tritiated heparin binding, times more than background (BSA) (approx. 15 ug protein on Immobilon-P, 6 assays): 2.2+/-0.4 times
B1: Recombinant AAMP: Recombinant human cell adhesion protein AAMP, gel purified from bacterial lysate (SEQ ID NO:7) (protein)
chain: GPEKWIRRLRRMESESESGAAADTPPLETLSFHGDEEIIEVVELDPGPPDPDDLAQEMEDVDFEEEEEEEGNEEGWVLEPQEGVVGSMEGPDDSEVTFALHSASVFCVSLDPKTNTLAVTGGEDDKAFVWRLSDGELLFECAGHKDSVTCAGFSHDSTLVATGDMSGLLKVWQVDTKEEVWSFEAGDLEWMEWHPRAPVLLAGTADGNTWMWKVPNGDCKTFQGPNCPATCGRVLPDGKRAVVGYEDGTIRIWDLKQGSPIHVLKGTEGHQGPLTCVAANQDGSLILTGSVDCQAKLVSATTGKVVGVFRPETVASQPSLGEGEESESNSVESLGFCSVMPLAAVGYLDGTLAIYDLATQTLRHQCQHQSGIVQLLWEAGTAVVYTCSLDGIVRLWDARTGRLLTDYRGHTAEILDFALSKDASLVVTTSGDHKAKVFCVQRPDR

From patent publication US6274134A, “Human cell adhesion protein AAMP-1 and uses thereof” (National Institutes of Health, priority 1993, dated 2001)
